Assay results as given in patent publication US20200239555A1 (STATEN BIOTECHNOLOGY B V, published 2020).

Columns and labels:
[1] = biological target: T1, native human ApoC3 (human, UniProt P02656 21-99); test: SPR, ApoC3 over captured IgG1
T1 construct: also called nhuApoC3; native huApoC3
Description: (§1) An inverted SPR assay was designed in which a test antibody was captured on an SPR chip, human ApoC3 protein was injected, and binding of ApoC3 to the antibody was measured. […] The immobilization was performed in accordance with the method provided by Biacore/GE using the NHS/EDC kit (Biacore AB, Cat.nr. BR-1000-50): after activation of the chip, a solution of 30 μg/ml of anti-human Fcγ antibody in 10 mM acetate buffer with pH of 5.0 was prepared and injected until the surface density reached approximately 10000 RU. The analytical cycle comprised the following steps:
(§2) The resulting sensorgrams were analyzed using the BIAevaluation 4.1 software using Langmuir 1:1 binding model to derive binding kinetics. Data was zero adjusted, the reference cell sensorgrams were subtracted and the no analyte blank assay was used for double referencing the sensorgrams corresponding to the analyte injections. The dissociation and association phase sensorgrams were fitted separately for the 4 different concentration curves. Sensorgrams were excluded from the fitting if maximum RU values reached were below the detection limit of the equipment (<5 RU), Biacore 3000 (Biacore AB).

[2] = biological target: T1, native human ApoC3; test: SPR, ApoC3 over captured IgG1, pH 5.5
Description: as §1, §2

[3] = biological target: T1, native human ApoC3; test: SPR, ApoC3 over captured IgG1, pH 7.4
Description: as §1, §2

[4] = biological target: T2, biotinylated native human ApoC3 (human, UniProt P02656 21-99, biotinylated (site not stated)); test: SPR, IgG1 over biotinylated ApoC3 on SA chip
T2 construct: also called biotinylated human ApoC3
T2 sequence (P02656 21-99): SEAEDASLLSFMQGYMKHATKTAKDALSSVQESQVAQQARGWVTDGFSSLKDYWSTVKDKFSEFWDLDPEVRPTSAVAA
Description: (§3) Biotinylated native human ApoC3 was captured on a streptavidin coated SPR chip (GE Healthcare, cat. nr. BR100032) at pH 7.4, in accordance with the method provided by Biacore, by injection of 20 μl 10 μg/ml biotinylated native human ApoC3 reaching the surface density of approximately 500 RU. 60 μL of test antibody in 1-50 nM range diluted in HBS-EP buffer (GE, cat # BR-1008-26; 0.010 M HEPES, 0.150M NaCl, 3 mM EDTA, 0.05% (v/v) surfactant P20, pH 7.4) was injected and passed through the flow cells at a flow rate of 30 μl/min, followed by an off-rate wash at pH7.4 for 5 min. After the dissociation, the flow cell surfaces were regenerated by injecting 10 μl of 10 mM NaOH/1 M NaCl and 10 μl of 10 mM glycine at pH1.5. The assay was repeated at pH5.5 using the same general protocol, where the running and sample dilution buffer was replaced by a HBS-EP buffer supplemented with citrate buffer to 10 mM final concentration and pH adjusted to 5.5.
(§4) The resulting sensorgrams were analyzed using the BIAevaluation 4.1 software using Langmuir 1:1 binding model to derive binding kinetics. Data was zero adjusted and the reference cell sensorgrams were subtracted. Sensorgrams were double referenced to no-analyte blank assay. Fitted parameters were considered not applicable if off-rate values were below the equipment's detection limit of kd: 1×10⁻⁶ 1/s.

[5] = biological target: T2, biotinylated native human ApoC3; test: SPR, IgG1 over biotinylated ApoC3 on SA chip, pH 5.5
Description: as §3, §4

[6] = biological target: T2, biotinylated native human ApoC3; test: SPR, IgG1 over biotinylated ApoC3 on SA chip, pH 7.4
Description: as §3, §4

T1 sequence (P02656 21-99): as above

B1: mAb6 (antibody, IgG1, V domains shown)
VH: QLVESGGGLVQPGGSLRLSCAASGFTFGTYSMRWVRQAPGKGLEWVSSIHTEGGGTAYRDSVKGRFTISRDNAKNTLYLQMNSLRAEDTAVYYCVIAGYSDWGQGTLVTVSS
VL: DIVMTQSPLSLPVTPGESASISCKTSQGLVHSDGKTYFYWFLQKPGQSPQQLIYQVSNRASGVPDRFSGSGSGTDFTLKISRVKAEDAGVYYCAHGTYYPHTFGQGTRLEIK
notes: Produced as full length IgG1 (kappa) in ExpiCHO-S cells; also called humanized anti-ApoC3 antibody mAb6
- KD (nM) pH5.5/pH7.4 [1]: 5.22
- Ka [2]: 1.16e+06 M⁻¹
- koff [2]: 0.0802 s⁻¹
- kon [2]: 93100 M⁻¹ s⁻¹
- Ka [3]: 6.08e+06 M⁻¹
- koff [3]: 0.00672 s⁻¹
- kon [3]: 40900 M⁻¹ s⁻¹
- KD pH5.5/KD pH7.4 [4]: 5.79
- Ka [5]: 2.88e+09 M⁻¹
- Kd [5]: 0.35 nM
- koff [5]: 0.000148 s⁻¹
- kon [5]: 425000 M⁻¹ s⁻¹
- Ka [6]: 1.67e+10 M⁻¹
- Kd [6]: 0.06 nM
- koff [6]: 1.33e-05 s⁻¹
- kon [6]: 222000 M⁻¹ s⁻¹

B2: mAb15 (antibody, IgG1, V domains shown)
VH: QLVESGGGLVQPGGSLRLSCAASGFTFGTYSMRWVRQAPGKGLEWVSSIHTEAGGTAYRDSVKGRFTISRDNAKNTLYLQMNNLKAEDTAIYYCVIAGYSDWGQGTQVTVSS
VL: DIVMTQSPLSLPVTPGESASISCKTSQGLVHSGGKTYFYWFLQKPGQSPQQLIYQVSNRASGVPDRFTGSGSGTDFTLKISRVEAEDAGVYYCAQGTYYPHTFGSGTRLEIK
notes: Produced as full length IgG1 (kappa) in ExpiCHO-S cells; also called humanized anti-ApoC3 antibody mAb15
- KD (nM) pH5.5/pH7.4 [1]: 2.48
- Ka [2]: 1.16e+07 M⁻¹
- Kd [2]: 86 nM
- koff [2]: 0.0116 s⁻¹
- kon [2]: 134000 M⁻¹ s⁻¹
- Ka [3]: 2.88e+07 M⁻¹
- Kd [3]: 35 nM
- koff [3]: 0.00378 s⁻¹
- kon [3]: 109000 M⁻¹ s⁻¹
- Ka [5]: 2.83e+09 M⁻¹
- Kd [5]: 0.35 nM
- koff [5]: 0.000249 s⁻¹
- kon [5]: 705000 M⁻¹ s⁻¹
- Ka [6]: 1.86e+11 M⁻¹
- koff [6]: 2.77e-06 s⁻¹
- kon [6]: 516000 M⁻¹ s⁻¹

B3: mAb2 (antibody, IgG1, V domains shown)
VH: QLVESGGGLVQPGGSLRLSCAASGFTFGTYSMRWVRQVPGKGLEWVSSIHTEGGGTAYRDSVKGRFTISRDNAKNTLYLQMNSLRAEDTAIYYCVIAGYSDWGQGTLVTVSS
VL: DIVMTQSPLSLPVTPGESASISCKTSQGLVHSDGKTYFYWFLQKPGQSPQQLIYQVSNRASGVPDRFSGSGSGTDFTLKISRVKAEDAGVYYCAHGTYYPHTFGQGTRLEIK
notes: Produced as full length IgG1 (kappa) in ExpiCHO-S cells; also called humanized anti-ApoC3 antibody mAb2
- KD (nM) pH5.5/pH7.4 [1]: 2.82
- Ka [2]: 3.44e+06 M⁻¹
- koff [2]: 0.0281 s⁻¹
- kon [2]: 96600 M⁻¹ s⁻¹
- Ka [3]: 9.69e+06 M⁻¹
- koff [3]: 0.0046 s⁻¹
- kon [3]: 44500 M⁻¹ s⁻¹
- KD pH5.5/KD pH7.4 [4]: 5.13
- Ka [5]: 3.54e+09 M⁻¹
- Kd [5]: 0.28 nM
- koff [5]: 0.000123 s⁻¹
- kon [5]: 435000 M⁻¹ s⁻¹
- Ka [6]: 1.81e+10 M⁻¹
- Kd [6]: 0.06 nM
- koff [6]: 1.35e-05 s⁻¹
- kon [6]: 245000 M⁻¹ s⁻¹

B4: mAb3 (antibody, IgG1, V domains shown)
VH: QLVESGGGLVQPGGSLRLSCAASGFTFGTYSMRWVRQAPGKGLEWVSSIHTEGGGTAYRDSVKGRFTISRDNAKNTLYLQMNSLRAEDTAIYYCVIAGYSDWGQGTLVTVSS
VL: DIVMTQSPLSLPVTPGESASISCKTSQGLVHSDGKTYFYWFLQKPGQSPQQLIYQVSNRASGVPDRFTGSGSGTDFTLKISRVKAEDAGVYYCAHGTYYPHTFGQGTRLEIK
notes: Produced as full length IgG1 (kappa) in ExpiCHO-S cells; also called humanized anti-ApoC3 antibody mAb3
- KD (nM) pH5.5/pH7.4 [1]: 1.86
- Ka [2]: 3.09e+06 M⁻¹
- koff [2]: 0.033 s⁻¹
- kon [2]: 102000 M⁻¹ s⁻¹
- Ka [3]: 5.75e+06 M⁻¹
- koff [3]: 0.00582 s⁻¹
- kon [3]: 33400 M⁻¹ s⁻¹
- KD pH5.5/KD pH7.4 [4]: 3.19
- Ka [5]: 2.85e+09 M⁻¹
- Kd [5]: 0.35 nM
- koff [5]: 0.000127 s⁻¹
- kon [5]: 363000 M⁻¹ s⁻¹
- Ka [6]: 9.11e+09 M⁻¹
- koff [6]: 2.33e-05 s⁻¹
- kon [6]: 212000 M⁻¹ s⁻¹

B5: mAb16 (antibody, IgG1, V domains shown)
VH: QLVESGGGLVQPGGSLRLSCAASGFTFGTYSMRWVRQAPGKGLEWVSSIHTEAGGTAYRDSVKGRFTISRDNAKNTLYLQMNNLKAEDTAIYYCVIAGYSDWGQGTQVTVSS
VL: DIVMTQSPLSLPVTPGESASISCKTSQGLVHSGGKTYFYWFLQKPGQSPQQLIYQVSNRASGVPDRFTGSGSGTDFTLKISRVEAEDAGVYYCAHGTYYPHTFGSGTRLEIK
notes: Produced as full length IgG1 (kappa) in ExpiCHO-S cells; also called humanized anti-ApoC3 antibody mAb16
- Ka [3]: 1.68e+06 M⁻¹
- koff [3]: 0.0466 s⁻¹
- kon [3]: 78100 M⁻¹ s⁻¹
- KD pH5.5/KD pH7.4 [4]: 10.8
- Ka [5]: 1.34e+08 M⁻¹
- koff [5]: 0.0121 s⁻¹
- kon [5]: 1.63e+06 M⁻¹ s⁻¹
- Ka [6]: 1.46e+09 M⁻¹
- Kd [6]: 0.69 nM
- koff [6]: 0.000375 s⁻¹
- kon [6]: 546000 M⁻¹ s⁻¹
